Values joined by “and” are separate entries in the source; they are usually repeats but may differ in a detail not shown here. Identical values can stand only once. Like-named read-outs stand apart in the source and are kept apart here.

This is an account of results in article PMC8081924 (The Journal of Biological Chemistry, 2021).

Data set [1] deals with the molecule itself. The experiment in a line: AUC.
Data set [2] concerns the molecule itself. The experiment in a line: AUC. The source holds these as a separate data set.
A further data set addresses O43175. Put plainly: AUC.
Data set [3] concerns the molecule itself. The experiment in a line: AUC. The source holds these as a separate data set.
Data set [4] deals with the molecule itself.
Data set [5] concerns the molecule itself. Put plainly: AUC. The source holds these as a separate data set.
Data set [6] deals with the molecule itself. Put plainly: cell-based or functional assay.

B1: full-length human D-3-phosphoglycerate dehydrogenase (PHGDH, 1-533), wild type (enzyme, UniProt O43175 1-533, looked up)
chain: MAFANLRKVLISDSLDPCCRKILQDGGLQVVEKQNLSKEELIAELQDCEGLIVRSATKVTADVINAAEKLQVVGRAGTGVDNVDLEAATRKGILVMNTPNGNSLSAAELTCGMIMCLARQIPQATASMKDGKWERKKFMGTELNGKTLGILGLGRIGREVATRMQSFGMKTIGYDPIISPEVSASFGVQQLPLEEIWPLCDFITVHTPLLPSTTGLLNDNTFAQCKKGVRVVNCARGGIVDEGALLRALQSGQCAGAALDVFTEEPPRDRALVDHENVISCPHLGASTKEAQSRCGEEIAVQFVDMVKGKSLTGVVNAQALTSAFSPHTKPWIGLAEALGTLMRAWAGSPKGTIQVITQGTSLKNAGNCLSPAVIVGLLKEASKQADVNLVNAKLLVKEAGLNVTTSHSPAAPGEQGFGECLLAVALAGAPYQAVGLVQGTTPVLQGLNGAVFRPEVPLRRDLPLLLFRTQTSDPAMLPTMIGLLAEAGVRLLSYQTSLVSDGETWHVMGISSLLPSLEAWKQHVTEAFQFHF
Broadly, the stoichiometry N is the number of molecules, sites or subunits per partner or assembly. Regarding B1, in “AUC [1]”, the “stoichiometry N” value was 2 and 4.

B2: full-length PHGDH E108A (enzyme, human, UniProt O43175 1-533, looked up)
chain: MAFANLRKVLISDSLDPCCRKILQDGGLQVVEKQNLSKEELIAELQDCEGLIVRSATKVTADVINAAEKLQVVGRAGTGVDNVDLEAATRKGILVMNTPNGNSLSAAALTCGMIMCLARQIPQATASMKDGKWERKKFMGTELNGKTLGILGLGRIGREVATRMQSFGMKTIGYDPIISPEVSASFGVQQLPLEEIWPLCDFITVHTPLLPSTTGLLNDNTFAQCKKGVRVVNCARGGIVDEGALLRALQSGQCAGAALDVFTEEPPRDRALVDHENVISCPHLGASTKEAQSRCGEEIAVQFVDMVKGKSLTGVVNAQALTSAFSPHTKPWIGLAEALGTLMRAWAGSPKGTIQVITQGTSLKNAGNCLSPAVIVGLLKEASKQADVNLVNAKLLVKEAGLNVTTSHSPAAPGEQGFGECLLAVALAGAPYQAVGLVQGTTPVLQGLNGAVFRPEVPLRRDLPLLLFRTQTSDPAMLPTMIGLLAEAGVRLLSYQTSLVSDGETWHVMGISSLLPSLEAWKQHVTEAFQFHF
On to B2, for which, in the data set “AUC [2]”, the “stoichiometry N” value was determined as 2.

B3: full-length PHGDH I121A (enzyme, human, UniProt O43175 1-533, looked up)
chain: MAFANLRKVLISDSLDPCCRKILQDGGLQVVEKQNLSKEELIAELQDCEGLIVRSATKVTADVINAAEKLQVVGRAGTGVDNVDLEAATRKGILVMNTPNGNSLSAAELTCGMIMCLARQAPQATASMKDGKWERKKFMGTELNGKTLGILGLGRIGREVATRMQSFGMKTIGYDPIISPEVSASFGVQQLPLEEIWPLCDFITVHTPLLPSTTGLLNDNTFAQCKKGVRVVNCARGGIVDEGALLRALQSGQCAGAALDVFTEEPPRDRALVDHENVISCPHLGASTKEAQSRCGEEIAVQFVDMVKGKSLTGVVNAQALTSAFSPHTKPWIGLAEALGTLMRAWAGSPKGTIQVITQGTSLKNAGNCLSPAVIVGLLKEASKQADVNLVNAKLLVKEAGLNVTTSHSPAAPGEQGFGECLLAVALAGAPYQAVGLVQGTTPVLQGLNGAVFRPEVPLRRDLPLLLFRTQTSDPAMLPTMIGLLAEAGVRLLSYQTSLVSDGETWHVMGISSLLPSLEAWKQHVTEAFQFHF
In the case of B3, the “stoichiometry N” value in the data set “AUC [2]” worked out at 2.

B4: full-length PHGDH G140R (enzyme, human, UniProt O43175 1-533, looked up)
chain: MAFANLRKVLISDSLDPCCRKILQDGGLQVVEKQNLSKEELIAELQDCEGLIVRSATKVTADVINAAEKLQVVGRAGTGVDNVDLEAATRKGILVMNTPNGNSLSAAELTCGMIMCLARQIPQATASMKDGKWERKKFMRTELNGKTLGILGLGRIGREVATRMQSFGMKTIGYDPIISPEVSASFGVQQLPLEEIWPLCDFITVHTPLLPSTTGLLNDNTFAQCKKGVRVVNCARGGIVDEGALLRALQSGQCAGAALDVFTEEPPRDRALVDHENVISCPHLGASTKEAQSRCGEEIAVQFVDMVKGKSLTGVVNAQALTSAFSPHTKPWIGLAEALGTLMRAWAGSPKGTIQVITQGTSLKNAGNCLSPAVIVGLLKEASKQADVNLVNAKLLVKEAGLNVTTSHSPAAPGEQGFGECLLAVALAGAPYQAVGLVQGTTPVLQGLNGAVFRPEVPLRRDLPLLLFRTQTSDPAMLPTMIGLLAEAGVRLLSYQTSLVSDGETWHVMGISSLLPSLEAWKQHVTEAFQFHF
With B4, the “stoichiometry N” value in “AUC [2]” worked out at 2.

B5: full-length PHGDH R119A (enzyme, human, UniProt O43175 1-533, looked up)
chain: MAFANLRKVLISDSLDPCCRKILQDGGLQVVEKQNLSKEELIAELQDCEGLIVRSATKVTADVINAAEKLQVVGRAGTGVDNVDLEAATRKGILVMNTPNGNSLSAAELTCGMIMCLAAQIPQATASMKDGKWERKKFMGTELNGKTLGILGLGRIGREVATRMQSFGMKTIGYDPIISPEVSASFGVQQLPLEEIWPLCDFITVHTPLLPSTTGLLNDNTFAQCKKGVRVVNCARGGIVDEGALLRALQSGQCAGAALDVFTEEPPRDRALVDHENVISCPHLGASTKEAQSRCGEEIAVQFVDMVKGKSLTGVVNAQALTSAFSPHTKPWIGLAEALGTLMRAWAGSPKGTIQVITQGTSLKNAGNCLSPAVIVGLLKEASKQADVNLVNAKLLVKEAGLNVTTSHSPAAPGEQGFGECLLAVALAGAPYQAVGLVQGTTPVLQGLNGAVFRPEVPLRRDLPLLLFRTQTSDPAMLPTMIGLLAEAGVRLLSYQTSLVSDGETWHVMGISSLLPSLEAWKQHVTEAFQFHF
B5: in “AUC [2]”, the “stoichiometry N” value amounted to 2.

B6: sPHGDH (catalytic unit of human D-3-phosphoglycerate dehydrogenase, 1-307), wild type (domain or fragment, UniProt O43175 1-307, looked up)
chain: MAFANLRKVLISDSLDPCCRKILQDGGLQVVEKQNLSKEELIAELQDCEGLIVRSATKVTADVINAAEKLQVVGRAGTGVDNVDLEAATRKGILVMNTPNGNSLSAAELTCGMIMCLARQIPQATASMKDGKWERKKFMGTELNGKTLGILGLGRIGREVATRMQSFGMKTIGYDPIISPEVSASFGVQQLPLEEIWPLCDFITVHTPLLPSTTGLLNDNTFAQCKKGVRVVNCARGGIVDEGALLRALQSGQCAGAALDVFTEEPPRDRALVDHENVISCPHLGASTKEAQSRCGEEIAVQFVDMV
As a reminder, the Kd is the concentration at which binding is half-saturated. High values mean a looser complex, low ones a tighter complex. As to B6, the “total concentration at which the dimer and monomer peak ratio is 1:1” value with O43175 is reported as “the 1:1 ratio at about 1 μM”. The “stoichiometry N” value in “AUC [3]” is 2. Besides, in data set [4], binding was put at a Kd of 580 nM.

B7: sPHGDH R135W (domain or fragment, human, UniProt O43175 1-307, looked up)
chain: MAFANLRKVLISDSLDPCCRKILQDGGLQVVEKQNLSKEELIAELQDCEGLIVRSATKVTADVINAAEKLQVVGRAGTGVDNVDLEAATRKGILVMNTPNGNSLSAAELTCGMIMCLARQIPQATASMKDGKWEWKKFMGTELNGKTLGILGLGRIGREVATRMQSFGMKTIGYDPIISPEVSASFGVQQLPLEEIWPLCDFITVHTPLLPSTTGLLNDNTFAQCKKGVRVVNCARGGIVDEGALLRALQSGQCAGAALDVFTEEPPRDRALVDHENVISCPHLGASTKEAQSRCGEEIAVQFVDMV
Take B7: the “stoichiometry N” value in “AUC [5]” is 2.

B8: sPHGDH R236E (domain or fragment, human, UniProt O43175 1-307, looked up)
chain: MAFANLRKVLISDSLDPCCRKILQDGGLQVVEKQNLSKEELIAELQDCEGLIVRSATKVTADVINAAEKLQVVGRAGTGVDNVDLEAATRKGILVMNTPNGNSLSAAELTCGMIMCLARQIPQATASMKDGKWERKKFMGTELNGKTLGILGLGRIGREVATRMQSFGMKTIGYDPIISPEVSASFGVQQLPLEEIWPLCDFITVHTPLLPSTTGLLNDNTFAQCKKGVRVVNCAEGGIVDEGALLRALQSGQCAGAALDVFTEEPPRDRALVDHENVISCPHLGASTKEAQSRCGEEIAVQFVDMV
Turning to B8, in the data set “AUC [5]”, the “stoichiometry N” value stood at 2.

B9: sPHGDH R135A (domain or fragment, human, UniProt O43175 1-307, looked up)
chain: MAFANLRKVLISDSLDPCCRKILQDGGLQVVEKQNLSKEELIAELQDCEGLIVRSATKVTADVINAAEKLQVVGRAGTGVDNVDLEAATRKGILVMNTPNGNSLSAAELTCGMIMCLARQIPQATASMKDGKWEAKKFMGTELNGKTLGILGLGRIGREVATRMQSFGMKTIGYDPIISPEVSASFGVQQLPLEEIWPLCDFITVHTPLLPSTTGLLNDNTFAQCKKGVRVVNCARGGIVDEGALLRALQSGQCAGAALDVFTEEPPRDRALVDHENVISCPHLGASTKEAQSRCGEEIAVQFVDMV
Turning to B9, in the data set “AUC [5]”, the “stoichiometry N” value amounted to 2. Besides, in data set [6], the “enzyme activity of the sPHGDH mutant at 2.4 μM against WT” value was ~80 % of WT.
